Test results from patent US20230227514A1, “BETA-ARRESTIN COMPOSITIONS AND ASSOCIATED METHODS” (Duke University, priority 2020, published 2023).

Legend:
β2AR = biological target: T1, β2AR (Homo sapiens, UniProt P07550); test: BRET titration assay of βarrestin2 construct recruitment to β2AR-Rluc; format: cell-based; settings: HEK-293T cells; β2AR-Rluc with YFP acceptor constructs; isoproterenol 1 μM, 5 min; compared among βarrestin2 constructs
T1 construct: Flag (N); expressed in transfected cells
Source text: (§1) BRET assays. […] Titration assays were first completed, which allowed determination of the specificity of association among different interaction partners. See Nagi and Shenoy. 2019, supra; Gales et al. 2005. Nature methods 2:177-184; Nagi et al. 2015. Cellular and molecular life sciences: CMLS 72:3543-3557; Audet and Pineyro. 2011. Methods in molecular biology 756:149-163; and Rebois et al. 2006. Journal of cell science 119:2807-2818. To achieve this, a fixed amount of the donor-tagged (Renilla luciferase, Rluc) construct was co-transfected with increasing amounts of the corresponding interaction partner bearing the acceptor (YFP). […] BRET readings were acquired using Synergy Neo2 plate reader and obtained 5 min after manual addition of Rluc substrate, coelenterazine h (Promega) to a final concentration of 5 μM.
(§2) The BRET signal generated was determined by calculating the ratio of light emitted by YFP (520-550 nm) over the light emitted by Rluc (440-480 nm). These values were then corrected by subtracting the background signal (detected when the Rluc-tagged construct was expressed without acceptor) from the BRET signal detected in cells co-expressing both donor and acceptor constructs. Agonist-induced BRET values were calculated by subtracting net BRET values of non-stimulated conditions from net BRET values corresponding to the stimulated conditions. […]

[1] = biological target: T2, D2 dopamine receptor (D2R) (Homo sapiens, UniProt P14416); test: Co-immunoprecipitation of βarrestin2 constructs with HA-D2R; format: binding; settings: HEK-293 cells stably expressing HA-D2R, co-IP
T2 construct: expressed in transfected cells
T2 sequence (P14416 whole entry): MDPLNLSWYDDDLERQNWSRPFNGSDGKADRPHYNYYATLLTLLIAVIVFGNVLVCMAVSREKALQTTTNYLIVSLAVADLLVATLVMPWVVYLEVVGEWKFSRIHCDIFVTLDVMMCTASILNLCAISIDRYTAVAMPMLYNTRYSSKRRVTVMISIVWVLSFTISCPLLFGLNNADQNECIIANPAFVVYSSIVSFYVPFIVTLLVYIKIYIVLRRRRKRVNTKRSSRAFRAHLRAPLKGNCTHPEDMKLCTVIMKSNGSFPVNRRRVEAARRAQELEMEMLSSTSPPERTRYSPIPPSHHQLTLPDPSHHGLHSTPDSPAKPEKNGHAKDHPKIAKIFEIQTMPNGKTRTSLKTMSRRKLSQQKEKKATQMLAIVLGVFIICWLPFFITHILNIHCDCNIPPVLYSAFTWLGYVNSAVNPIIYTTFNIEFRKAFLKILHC
Method: Cross-linking, Immunoprecipitation and Immunoblotting. […] Twenty-four hours post-transfection, cells were starved in PBS containing 10 mM HEPES (pH 7.4) for 1 h and stimulated with vehicle or agonist (isoproterenol, 1 μM; or AVP 1 μM, or Dopamine 1 μM) at 37° C. for desired times. After stimulations, β2AR stable cells were treated with the crosslinker DSP to a final concentration of […], and plates were rocked for 20 min at room temperature. Reaction was quenched by adding 25 μl of 1M Tris-Cl pH 8.5 per 1 mL volume of buffer in the dish and rocked for additional 5 min at room temperature.
Harvested cells were washed with ice-cold PBS (pH 7.4) and solubilized in an ice-cold lysis buffer (50 mM HEPES (pH 7.5), 2 mM EDTA, 250 mM NaCl, 10% (v/v) glycerol, and 0.5% (v/v) IGEPAL CA-630) that was supplemented with phosphatase and protease inhibitors (1 mM sodium orthovanadate, 1 mM sodium fluoride, 1 mM phenylmethylsulfonyl fluoride, 5 μg/ml leupeptin, 5 μg/ml aprotinin, 1 μg/ml pepstatin A, and 100 μM benzamidine). […] Cell lysate protein concentrations were determined by Bradford protein assay and equivalent μg of proteins were immunoprecipitated using anti-FLAG M2 antibody resin (for FIG. 2) or Anti-HA magnetic beads from Thermo Pierce (for FIG. 5, FIG. 7, and FIG. 8). […] HA-D2R or HA-V2R were detected using an anti-HA IgG (Cell Signaling Technologies). […]

V2R = biological target: T3, V2R (Homo sapiens, UniProt P30518); test: BRET assay of βarrestin2 construct recruitment to V2R; format: cell-based; settings: vasopressin stimulation, 15 min
T3 construct: HA (N); expressed in transfected cells
Method: Changes following agonist treatment are expressed as a percentage of the BRET signal observed in unstimulated cells (top panel). The histogram (bottom panel) represents Bmax values of agonist-induced BRET as means±SEM of 3 independent experiments performed in duplicates. Lack of significance (“ns”) of changes in energy transfer was evaluated using unpaired t-test.
as §1, with “119:2807-2818.” for “119:2807-2818. To achieve this, a fixed amount of the donor-tagged (Renilla luciferase, Rluc) construct was co-transfected with increasing amounts of the corresponding interaction partner bearing the acceptor (YFP).”
as §2, with “constructs.” for “constructs. Agonist-induced BRET values were calculated by subtracting net BRET values of non-stimulated conditions from net BRET values corresponding to the stimulated conditions.”

“βarrestin2-SUMO1: rat βarrestin2 polypeptide fused to human SUMO1 (SEQ ID NO:1); used YFP- or Flag-tagged” was tested, and the “agonist-induced net BRET change for interaction with β2AR” value (β2AR) was “highest change in the net BRET value”, the “binding to activated D2R relative to wild-type βarrestin2” value ([1]; 20 minutes of 1 μM dopamine, Western blot) was 3-4 fold and the “D2R-binding affinity versus βarrestin2” value ([1]; five minutes of 1 μM dopamine) was “no significant difference”. The “magnitude of interaction with activated V2R defined by BRET, versus βarrestin2” value (V2R) was “No significant differences”.
